In the assay the target is AD-Myo5 [S. cerevisiae]. Kind of assay: yeast two-hybrid (β-galactosidase activity). The conditions noted are these: read off a plot.

For the substance “human BD-UNC45-SM, wild type mutant S251A [human] / AD-Myo5 [S. cerevisiae] chain 1 S251A”, the response by setting is: (25 °C (no heat shock)) 0.79 mU; (39 °C (heat shock)) 1 mU.

As for “human BD-UNC45-SM, wild type mutant S251E [human] / AD-Myo5 [S. cerevisiae] chain 1 S251E”, the response (25 °C (no heat shock)) is 0.29 mU and the response (39 °C (heat shock)) stood at 0.52 mU.

With “She4-BD, wild type mutant S18E [S. cerevisiae] / AD-Myo5 [S. cerevisiae] chain 1 S18E”, the response was 0.075 mU (25 °C (no heat shock)) and 0.17 mU (39 °C (heat shock)).

As to “She4-BD, wild type mutant S18A [S. cerevisiae] / AD-Myo5 [S. cerevisiae] chain 1 S18A”, the response (25 °C (no heat shock)) was 0.34 mU and the response (39 °C (heat shock)) was 0.45 mU.
